Molecular target: TNF receptor-associated factor 2 (TRAF2) (human (endogenous in HEK-293T)) (UniProt Q12933)
Assay: co-IP; lysates of HEK-293T cells transfected with Tyr52 or Cys52 FBXO7-EGFP and treated with MG-132 (5 uM, 24 h); 100 ug protein immunoprecipitated with mouse anti-TRAF2 antibody on protein G beads in IP lysis buffer (25 mM Tris-HCl pH 7.4, 150 mM NaCl, 1% NP-40, 1 mM EDTA, 5% glycerol); blot with anti-EGFP; normal IgG as negative control

Sequence of UniProt Q12933 (Q12933 whole entry): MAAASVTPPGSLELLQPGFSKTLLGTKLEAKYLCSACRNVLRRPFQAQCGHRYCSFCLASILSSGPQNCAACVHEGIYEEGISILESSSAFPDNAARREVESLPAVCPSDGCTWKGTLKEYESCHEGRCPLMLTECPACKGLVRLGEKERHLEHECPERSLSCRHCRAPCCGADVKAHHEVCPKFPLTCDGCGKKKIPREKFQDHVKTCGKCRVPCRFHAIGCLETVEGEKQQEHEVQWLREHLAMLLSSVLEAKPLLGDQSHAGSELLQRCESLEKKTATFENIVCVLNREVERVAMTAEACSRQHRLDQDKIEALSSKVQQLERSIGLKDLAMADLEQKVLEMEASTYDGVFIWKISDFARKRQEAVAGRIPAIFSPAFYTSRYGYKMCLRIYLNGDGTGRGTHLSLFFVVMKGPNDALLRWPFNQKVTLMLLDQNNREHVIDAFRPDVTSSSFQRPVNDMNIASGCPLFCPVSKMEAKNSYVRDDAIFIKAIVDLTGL

Cys52 FBXO7-EGFP (F-box only protein 7 Y52C variant, isoform 1, EGFP-tagged) (from UniProt Q9Y3I1-1 1-522) (natural protein)
FBXO7-TRAF2 interaction in co-IP, percent of Tyr52 FBXO7-EGFP: 367%

Source: paper PMC4100735
